Test results published in the Immune Epitope Database (IEDB).

Key:
[1] = molecular target: HLA-B*40:01; assay: IEDB peptide-MHC binding, purified MHC/competitive/radioactivity; filed as Kd, often an IC50 or EC50 that approximates it; ≥ and ≤ were set here for values at or beyond the usual limits of such assays
[2] = molecular target: HLA-B*45:01; assay: as above
[3] = molecular target: HLA-B*40:02; assay: as above
[4] = molecular target: HLA-B*18:01; assay: as above
[5] = molecular target: HLA-B*44:03; assay: as above
[6] = molecular target: HLA-B*44:02; assay: as above
[7] = molecular target: HLA-B*15:03; assay: as above
[8] = molecular target: HLA-B*15:01; assay: as above
[9] = molecular target: HLA-A*32:01; assay: as above
[10] = molecular target: HLA-B*08:01; assay: as above
[11] = molecular target: HLA-A*30:01; assay: as above
[12] = molecular target: HLA-A*68:02; assay: as above
[13] = molecular target: HLA-B*51:01; assay: as above
[14] = molecular target: HLA-B*07:02; assay: as above
[15] = molecular target: HLA-B*35:01; assay: as above
[16] = molecular target: HLA-A*02:03; assay: as above
[17] = molecular target: HLA-A*01:01; assay: as above
[18] = molecular target: HLA-A*03:01; assay: as above
[19] = molecular target: HLA-A*02:01; assay: as above
[20] = molecular target: HLA-A*11:01; assay: as above
[21] = molecular target: HLA-B*54:01; assay: as above
[22] = molecular target: HLA-A*02:02; assay: as above
[23] = molecular target: HLA-A*68:01; assay: as above
[24] = molecular target: HLA-A*33:01; assay: as above
[25] = molecular target: HLA-B*53:01; assay: as above
[26] = molecular target: HLA-A*31:01; assay: as above
[27] = molecular target: HLA-A*02:06; assay: as above
[28] = molecular target: HLA-A*26:01; assay: as above; conditions: source organism: Vaccinia virus WR
[29] = molecular target: HLA-A*23:01; assay: as above; conditions: source organism: Vaccinia virus WR
[30] = molecular target: HLA-A*24:02; assay: as above; conditions: source organism: Vaccinia virus WR
[31] = molecular target: HLA-A*30:02; assay: as above; conditions: source organism: Vaccinia virus WR
[32] = molecular target: HLA-A*29:02; assay: as above; conditions: source organism: Vaccinia virus WR
[33] = molecular target: HLA-B*40:01; assay: IEDB peptide-MHC binding, purified MHC/direct/fluorescence; filed as Kd, often an IC50 or EC50 that approximates it; ≥ and ≤ were set here for values at or beyond the usual limits of such assays; conditions: source organism: Entamoeba histolytica HM-1:IMSS
[34] = molecular target: HLA-B*18:01; assay: as above; conditions: source organism: Entamoeba histolytica HM-1:IMSS
[35] = source organism: SARS coronavirus Tor2
[36] = source organism: Vaccinia virus Copenhagen
[37] = source organism: Mammarenavirus juninense
[38] = source organism: Mammarenavirus brazilense
[39] = source organism: Vaccinia virus WR
[40] = source organism: Hepacivirus hominis
[41] = source organism: Mammarenavirus lassaense

## AESHMDADLA
[1]; [35]
  Kd: 163 nM
[2]; [35]
  Kd: 8.31 nM
[3]; [35]
  Kd: 63.1 nM
[4]; [35]
  Kd: ≥ 48000 nM
[5]; [35]
  Kd: 1120 nM
[6]; [35]
  Kd: 1330 nM

## CLNNSLMSF
[7]; [36]
  Kd: 0.768 nM

## DELGNILSVY
[1]; [37]
  Kd: ≥ 69500 nM
[2]; [37]
  Kd: ≥ 70000 nM
[3]; [37]
  Kd: 14100 nM
[4]; [37]
  Kd: 8.98 nM
[5]; [37]
  Kd: 1210 nM
[6]; [37]
  Kd: 7440 nM

## EDQGNPIVL
[1]; [38]
  Kd: 4860 nM
[2]; [38]
  Kd: 14900 nM
[3]; [38]
  Kd: ≥ 24200 nM
[4]; [38]
  Kd: ≥ 52100 nM
[5]; [38]
  Kd: ≥ 78100 nM
[6]; [38]
  Kd: ≥ 36600 nM

## EEVNIDNSF
[7]; [39]
  Kd: 1200 nM

## FELCDNPFF
[1]; [35]
  Kd: 35.1 nM
[2]; [35]
  Kd: 17700 nM
[3]; [35]
  Kd: 95.6 nM
[4]; [35]
  Kd: 211 nM
[5]; [35]
  Kd: 58.2 nM
[6]; [35]
  Kd: 32.1 nM

## FEYISDAFSL
[1]; [35]
  Kd: 1.66 nM
[2]; [35]
  Kd: 6380 nM
[3]; [35]
  Kd: 838 nM
[4]; [35]
  Kd: 1800 nM
[5]; [35]
  Kd: 1450 nM
[6]; [35]
  Kd: 3210 nM

## FIKNKIHLL
[8]; [39]
  Kd: 97.7 nM
[9]; [39]
  Kd: 2810 nM
[10]; [39]
  Kd: 0.821 nM
[7]; [39]
  Kd: 6910 nM
[11]; [39]
  Kd: 2520 nM

## FMLMETMFF
[7]; [39]
  Kd: 0.188 nM

## FPKNDFVSF
[8]; [39]
  Kd: 10.4 nM
[9]; [39]
  Kd: ≥ 53700 nM
[10]; [39]
  Kd: 15.5 nM
[7]; [39]
  Kd: 4.22 nM
[11]; [39]
  Kd: 9120 nM

## GEENFSSRMY
[1]; [35]
  Kd: 8440 nM
[2]; [35]
  Kd: 3210 nM
[3]; [35]
  Kd: 14200 nM
[4]; [35]
  Kd: 3940 nM
[5]; [35]
  Kd: 68.3 nM
[6]; [35]
  Kd: 58.1 nM

## GEVLSLDKL
[1]; [35]
  Kd: 10.9 nM
[2]; [35]
  Kd: 17300 nM
[3]; [35]
  Kd: 30.7 nM
[4]; [35]
  Kd: ≥ 77500 nM
[5]; [35]
  Kd: 2330 nM
[6]; [35]
  Kd: 7880 nM

## HSKKKCDDL
[12]; [40]
  Kd: ≥ 69800 nM
[13]; [40]
  Kd: ≥ 51900 nM
[14]; [40]
  Kd: ≥ 66800 nM
[15]; [40]
  Kd: ≥ 77400 nM
[16]; [40]
  Kd: ≥ 70400 nM
[17]; [40]
  Kd: ≥ 53900 nM
[18]; [40]
  Kd: ≥ 78000 nM
[10]; [40]
  Kd: ≥ 57700 nM
[19]; [40]
  Kd: ≥ 69400 nM
[20]; [40]
  Kd: ≥ 77900 nM
[21]; [40]
  Kd: ≥ 78100 nM
[22]; [40]
  Kd: ≥ 70000 nM
[23]; [40]
  Kd: ≥ 77700 nM
[24]; [40]
  Kd: ≥ 77700 nM
[25]; [40]
  Kd: ≥ 57000 nM
[26]; [40]
  Kd: ≥ 77900 nM
[27]; [40]
  Kd: ≥ 77100 nM

## IKFAAGIII
[7]; [39]
  Kd: 16 nM

## IMALIVSIF
[7]; source organism: Vaccinia virus
  Kd: 4.53 nM

## KDPLITSGC
[1]; [41]
  Kd: 17300 nM
[2]; [41]
  Kd: ≥ 77100 nM
[3]; [41]
  Kd: 4500 nM
[4]; [41]
  Kd: ≥ 77500 nM
[5]; [41]
  Kd: ≥ 78100 nM
[6]; [41]
  Kd: ≥ 77900 nM

## KEAYCQEFFL
[1]; [41]
  Kd: 10900 nM
[2]; [41]
  Kd: 15600 nM
[3]; [41]
  Kd: 15.3 nM
[4]; [41]
  Kd: ≥ 30500 nM
[5]; [41]
  Kd: 1180 nM
[6]; [41]
  Kd: 520 nM

## KIGMFNLTF
[8]; [39]
  Kd: 0.209 nM
[9]; [39]
  Kd: 0.268 nM
[10]; [39]
  Kd: ≥ 36100 nM
[7]; [39]
  Kd: 12.6 nM
[11]; [39]
  Kd: 4760 nM

## KKVIGFVSI
[7]; [39]
  Kd: 7.49 nM

## KTSSFKISK
[8]; [39]
  Kd: ≥ 62200 nM
[9]; [39]
  Kd: ≥ 23000 nM
[10]; [39]
  Kd: ≥ 31400 nM
[7]; [39]
  Kd: ≥ 68000 nM
[11]; [39]
  Kd: 88.1 nM

## KTSTLIFFV
[12]; [39]
  Kd: 47.2 nM
[13]; [39]
  Kd: 11400 nM
[28]
  Kd: 4810 nM
[14]; [39]
  Kd: ≥ 30500 nM
[15]; [39]
  Kd: ≥ 35800 nM
[16]; [39]
  Kd: 156 nM
[17]; [39]
  Kd: 1880 nM
[29]
  Kd: 9120 nM
[30]
  Kd: 6600 nM
[31]
  Kd: 251 nM
[21]; [39]
  Kd: 13800 nM
[22]; [39]
  Kd: 1.38 nM
[32]
  Kd: 2650 nM
[25]; [39]
  Kd: 15000 nM
[27]; [39]
  Kd: 1.76 nM

## LKSVETSSL
[7]; [36]
  Kd: 3.76 nM

## LPVIFLSIF
[7]; [39]
  Kd: 162 nM

## MMSMYGKAF
[8]; [39]
  Kd: 3.18 nM
[7]; [39]
  Kd: 2.61 nM

## NLLCHIYSL
[8]; [39]
  Kd: 1930 nM
[9]; [39]
  Kd: 231 nM
[10]; [39]
  Kd: 0.307 nM
[7]; [39]
  Kd: 2030 nM
[11]; [39]
  Kd: 56.3 nM

## RIRRFRRPM
[8]; [39]
  Kd: 36.2 nM
[9]; [39]
  Kd: 769 nM
[10]; [39]
  Kd: 8.94 nM
[7]; [39]
  Kd: 30.2 nM
[11]; [39]
  Kd: 4.4 nM

## RLYSEGLSI
[8]; [39]
  Kd: 4.53 nM
[7]; [39]
  Kd: 31.9 nM

## SLTIKDSSNK
[12]; [39]
  Kd: ≥ 69800 nM
[13]; [39]
  Kd: ≥ 69600 nM
[14]; [39]
  Kd: ≥ 52300 nM
[15]; [39]
  Kd: ≥ 46500 nM
[16]; [39]
  Kd: ≥ 70400 nM
[18]; [39]
  Kd: 9780 nM
[19]; [39]
  Kd: ≥ 69400 nM
[20]; [39]
  Kd: ≥ 25300 nM
[21]; [39]
  Kd: ≥ 69900 nM
[22]; [39]
  Kd: ≥ 70000 nM
[23]; [39]
  Kd: ≥ 52700 nM
[24]; [39]
  Kd: ≥ 70000 nM
[25]; [39]
  Kd: ≥ 69900 nM
[26]; [39]
  Kd: ≥ 70000 nM
[27]; [39]
  Kd: ≥ 69800 nM

## SQYLSRVSL
[7]; [39]
  Kd: 0.235 nM

## SSRRYRCSF
[8]; [39]
  Kd: 682 nM
[10]; [39]
  Kd: 11.5 nM
[7]; [39]
  Kd: 54.5 nM

## SSVREVFYF
[7]; [39]
  Kd: 123 nM

## YEYVLIGIL
[33]
  Kd: ≤ 1 nM
[34]
  Kd: 4 nM

## YTLYKKLSF
[8]; [36]
  Kd: 14.3 nM
[9]; [36]
  Kd: 194 nM
[10]; [36]
  Kd: 16.3 nM
[7]; [36]
  Kd: 38.2 nM
[11]; [36]
  Kd: 22.6 nM
